Measured values: PMC12065904

Target: rabbit skeletal muscle actin, polymerized in vitro (F-actin) (rabbit) (UniProt P68135)
Test: co-sedimentation; F-actin cosedimentation: CaVβ proteins incubated with polymerized actin in polymerization buffer (0.2 mM CaCl2, 50 mM KCl, 2 mM MgCl2, 1 mM ATP, 5 mM HEPES pH 8.0), 25 µM phalloidin; 150,000 × g, 20 min, 4 °C; densitometry of pellet over total; also at 30–150 mM NaCl and after 30 or 90 min of incubation

With “CaVβ4 R482X (truncated, naturally occurring variant of human CaVβ4 linked to juvenile myoclonic epilepsy) (from UniProt O00305-1 1-431) (domain or fragment)” the percent cosedimented with actin was greater than 80%.
